In patent US20240010748A1:

How the values were obtained:
[1] = target: human CD3 (hCD3) naturally expressed on Jurkat cells (human) (UniProt P07766); assay: cell-based or functional assay
[2] = target: murine Claudin 18.2 (mCLDN18.2) on stably-transfected HEK293 cells (murine) (UniProt P56857); assay: FACS on HEK293-mCLDN18.2 cells
[3] = target: Cynomolgus macaques Claudin 18 (cynoCLDN18) on stably-transfected HEK293 cells (Cynomolgus macaques); assay: FACS on HEK293-cynoCLDN18 cells
[4] = target: human CD3 (hCD3) naturally expressed on Jurkat cells (human) (UniProt P07766); assay: FACS on Jurkat cells
[5] = target: human Claudin 18.2 (hCLDN18.2) on stably-transfected HEK293 cells (human) (UniProt P56856); assay: FACS on HEK293-hCLDN18.2 cells
Sequence of human Claudin 18.2 (hCLDN18.2) on stably-transfected HEK293 cells (human) (P56856 other isoform, or with tags, fused parts or gaps limits assumed): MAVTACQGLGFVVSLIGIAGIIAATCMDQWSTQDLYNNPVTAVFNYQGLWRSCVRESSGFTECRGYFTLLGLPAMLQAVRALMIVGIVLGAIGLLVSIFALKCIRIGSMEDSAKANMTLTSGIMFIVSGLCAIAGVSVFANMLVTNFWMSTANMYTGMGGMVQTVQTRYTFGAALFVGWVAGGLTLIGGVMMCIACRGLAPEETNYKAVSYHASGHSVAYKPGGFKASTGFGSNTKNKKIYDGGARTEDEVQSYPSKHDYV

Sequence of human CD3 (hCD3) naturally expressed on Jurkat cells (human) (P07766 23-207): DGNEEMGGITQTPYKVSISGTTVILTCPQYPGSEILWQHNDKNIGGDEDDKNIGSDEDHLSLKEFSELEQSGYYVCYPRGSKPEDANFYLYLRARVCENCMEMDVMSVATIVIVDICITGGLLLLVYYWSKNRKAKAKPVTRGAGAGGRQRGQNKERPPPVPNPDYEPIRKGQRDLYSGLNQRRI

Jurkat-NFAT luciferase reporter, Fluorescence value (Max) [1]: 0
MFI (Max) [2]: 75 MFI
MFI (Max) [3]: 136 MFI
Top mean fluorescence intensity (Top MFI) [4]: 110 MFI
Top mean fluorescence intensity (Top MFI) [5]: 359 MFI
Substance: Negative-IgG1AA (antibody)
